Laboratory results taken from US20240261333A1 (published 2024).

B1: C-terminal FLAG tagged B3GNT2 (enzyme, human, UniProt Q9NY97 1-397, looked up)
chain: MSVGRRRIKLLGILMMANVFIYFIMEVSKSSSQEKNGKGEVIIPKEKFWKISTPPEAYWNREQEKLNRQYNPILSMLTNQTGEAGRLSNISHLNYCEPDLRVTSVVTGFNNLPDRFKDFLLYLRCRNYSLLIDQPDKCAKKPFLLLAIKSLTPHFARRQAIRESWGQESNAGNQTVVRVFLLGQTPPEDNHPDLSDMLKFESEKHQDILMWNYRDTFFNLSLKEVLFLRWVSTSCPDTEFVFKGDDDVFVNTHHILNYLNSLSKTKAKDLFIGDVIHNAGPHRDKKLKYYIPEVVYSGLYPPYAGGGGFLYSGHLALRLYHITDQVHLYPIDDVYTGMCLQKLGLVPEKHKGFRTFDIEEKNKNNICSYVDLMLVHSRKPQEMIDIWSQLQSAHLKC
notes: Bait of the co-IP; pulled down with mouse anti-FLAG from cell lysate; also called C-FLAG B3GNT2; C-term flag; not shown: FLAG tag at the C-terminus
B2: C-terminal FLAG tagged B3GNT2 (enzyme, human, UniProt Q9NY97 1-397, looked up)
chain: MSVGRRRIKLLGILMMANVFIYFIMEVSKSSSQEKNGKGEVIIPKEKFWKISTPPEAYWNREQEKLNRQYNPILSMLTNQTGEAGRLSNISHLNYCEPDLRVTSVVTGFNNLPDRFKDFLLYLRCRNYSLLIDQPDKCAKKPFLLLAIKSLTPHFARRQAIRESWGQESNAGNQTVVRVFLLGQTPPEDNHPDLSDMLKFESEKHQDILMWNYRDTFFNLSLKEVLFLRWVSTSCPDTEFVFKGDDDVFVNTHHILNYLNSLSKTKAKDLFIGDVIHNAGPHRDKKLKYYIPEVVYSGLYPPYAGGGGFLYSGHLALRLYHITDQVHLYPIDDVYTGMCLQKLGLVPEKHKGFRTFDIEEKNKNNICSYVDLMLVHSRKPQEMIDIWSQLQSAHLKC
notes: FLAG-tagged ORF overexpressed in cells; bait of the anti-FLAG co-IP; also called C-FLAG B3GNT2; C-term flag; not shown: FLAG tag at the C-terminus

Columns and labels:
ARG1 = target: T1, ARG1 (UniProt P05089 1-322); test: co-IP, anti-FLAG, C-FLAG B3GNT2 cell lysate, mass spectrometry
T1 construct: also called NP_000036.2 (+1)
T1 sequence (looked up): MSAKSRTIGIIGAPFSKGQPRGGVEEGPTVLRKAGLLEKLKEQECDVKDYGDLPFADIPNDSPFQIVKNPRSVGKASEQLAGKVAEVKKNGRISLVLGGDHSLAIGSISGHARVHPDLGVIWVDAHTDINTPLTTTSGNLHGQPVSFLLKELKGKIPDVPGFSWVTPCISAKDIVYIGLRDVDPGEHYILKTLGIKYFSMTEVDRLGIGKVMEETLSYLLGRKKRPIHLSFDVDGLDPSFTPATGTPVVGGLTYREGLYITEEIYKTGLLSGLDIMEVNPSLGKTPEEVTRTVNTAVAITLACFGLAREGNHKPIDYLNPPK
Protocol: (§1) Cells were plated in 10-cm cell culture dishes and grown to 60-80% confluency. For each condition, two biological replicates were harvested for co-IP. Cells were washed with PBS and 4 mL of lysis buffer (20 mM HEPES, 1% Triton X-100, 150 mM NaCl, 1 mM EDTA, and 10% glycerol) containing protease inhibitor cocktail was added. Cells were scraped and lysate was incubated at 4° C. under rotary agitation for 1 h. Lysate was centrifuged at 14,000×g for 10 min at 4° C. Supernatant was transferred to a new tube and an aliquot was taken as the input. […] For Western blots, 10 μg/mL Chicken Anti-FLAG (Aves labs ET-DY100) and IgY control (R&D Systems AB-101-C) antibodies were biotinylated (Thermo Fisher Scientific 90407) and added to the respective conditions. Lysates with antibodies were incubated at 4° C. under rotary agitation overnight. For each mL of lysate, 50 μL of Pierce Protein A/G Magnetic Beads (Mass spectrometry; Thermo Fisher Scientific 88803) or Pierce Streptavidin Magnetic Beads (Western blot; Thermo Fisher Scientific 88817) was washed twice with lysis buffer. Lysates with antibodies were added to the beads and incubated at 4° C. under rotary agitation for 4 h. Beads were washed with lysis buffer 3 times and resuspended in lysis buffer for storage.
(§2) Magnetic beads were resuspended in 100 mM Tris pH 7.8, reduced, alkylated and digested with trypsin at 37° ° C. overnight. This solution was subjected to solid phase extraction to concentrate the peptides and remove unwanted reagents followed by injection onto a Shimadzu HPLC with fraction collector. Eight fractions were collected and after concentration were injected on a Waters NanoAcquity HPLC equipped with a self-packed Aeris 3 μm C18 analytical column 0.075 mm by 20 cm, (Phenomenex). Peptides were eluted using standard reverse-phase gradients. The effluent from the column was analyzed using a Thermo Orbitrap Elite mass spectrometer (nanospray configuration) operated in a data dependent manner for 54 minutes. The resulting fragmentation spectra were correlated against the known database using Proteome Discover 1.4 (Thermo Fisher Scientific).

TMEM59 = target: T2, TMEM59 (UniProt Q9BXS4 36-323, limits assumed); test: as above
T2 construct: also called NP_001291972.1
T2 sequence (looked up): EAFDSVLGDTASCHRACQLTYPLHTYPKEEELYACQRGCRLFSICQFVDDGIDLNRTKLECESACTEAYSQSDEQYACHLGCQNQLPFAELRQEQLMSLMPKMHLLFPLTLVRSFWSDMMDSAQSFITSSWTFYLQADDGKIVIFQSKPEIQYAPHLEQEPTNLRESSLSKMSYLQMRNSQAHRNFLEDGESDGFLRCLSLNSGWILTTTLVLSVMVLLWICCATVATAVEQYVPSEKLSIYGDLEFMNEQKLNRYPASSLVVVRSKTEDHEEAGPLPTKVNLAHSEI
Protocol: as §1, §2

RPS2 = RPS2 (UniProt P15880 2-293); test: as above
Protocol: as §1, §2

DEFA3 = target: T3, DEFA3 (UniProt P59666 65-94, limits assumed); test: as above
T3 construct: also called NP_005208.1 (+1)
T3 sequence (P59666 65-94 limits assumed): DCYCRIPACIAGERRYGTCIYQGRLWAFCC
Protocol: as §1, §2

POF1B = target: T4, POF1B (UniProt Q8WVV4-1 1-595, limits assumed); test: as above
T4 construct: also called NP_001294869.1 (+2)
T4 sequence (looked up): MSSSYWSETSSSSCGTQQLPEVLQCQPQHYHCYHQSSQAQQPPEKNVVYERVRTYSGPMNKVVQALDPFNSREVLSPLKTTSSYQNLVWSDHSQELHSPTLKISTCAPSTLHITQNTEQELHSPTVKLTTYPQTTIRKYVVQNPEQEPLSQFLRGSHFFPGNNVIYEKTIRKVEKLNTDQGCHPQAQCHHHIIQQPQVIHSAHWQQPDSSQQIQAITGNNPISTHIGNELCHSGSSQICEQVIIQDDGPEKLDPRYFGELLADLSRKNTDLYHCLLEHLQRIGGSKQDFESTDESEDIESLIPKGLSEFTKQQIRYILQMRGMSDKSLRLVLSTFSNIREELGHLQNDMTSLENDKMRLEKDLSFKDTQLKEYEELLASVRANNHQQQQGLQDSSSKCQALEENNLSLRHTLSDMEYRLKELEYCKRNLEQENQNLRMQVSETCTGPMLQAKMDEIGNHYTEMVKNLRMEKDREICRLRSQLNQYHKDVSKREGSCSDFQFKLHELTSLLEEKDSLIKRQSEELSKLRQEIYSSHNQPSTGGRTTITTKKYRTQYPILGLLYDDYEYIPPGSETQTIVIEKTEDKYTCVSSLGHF
Protocol: as §1, §2

RPS23 = RPS23 (UniProt P62266 2-143); test: as above
Protocol: as §1, §2

CDSN = target: T5, CDSN (UniProt Q15517 33-529, limits assumed); test: as above
T5 construct: also called NP_001255.4
T5 sequence (looked up): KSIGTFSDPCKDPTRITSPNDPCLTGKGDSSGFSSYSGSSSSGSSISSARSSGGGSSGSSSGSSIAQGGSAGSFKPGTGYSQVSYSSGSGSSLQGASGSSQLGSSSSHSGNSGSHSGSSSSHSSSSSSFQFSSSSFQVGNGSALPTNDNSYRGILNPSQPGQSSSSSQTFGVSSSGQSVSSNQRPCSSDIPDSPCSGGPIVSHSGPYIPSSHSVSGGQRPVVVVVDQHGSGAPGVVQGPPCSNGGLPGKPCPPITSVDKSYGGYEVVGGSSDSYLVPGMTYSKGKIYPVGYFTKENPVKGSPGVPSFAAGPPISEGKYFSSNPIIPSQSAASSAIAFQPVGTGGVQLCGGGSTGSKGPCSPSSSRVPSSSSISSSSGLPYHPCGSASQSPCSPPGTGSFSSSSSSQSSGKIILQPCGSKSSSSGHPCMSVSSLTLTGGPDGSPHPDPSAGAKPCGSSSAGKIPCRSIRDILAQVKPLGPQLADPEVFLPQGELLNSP
Protocol: as §1, §2

RPS18 = RPS18 (UniProt P62269 2-152); test: as above
Protocol: as §1, §2

EMD = target: T6, EMD (UniProt P50402 1-254); test: as above
T6 construct: also called NP_000108.1
T6 sequence (looked up): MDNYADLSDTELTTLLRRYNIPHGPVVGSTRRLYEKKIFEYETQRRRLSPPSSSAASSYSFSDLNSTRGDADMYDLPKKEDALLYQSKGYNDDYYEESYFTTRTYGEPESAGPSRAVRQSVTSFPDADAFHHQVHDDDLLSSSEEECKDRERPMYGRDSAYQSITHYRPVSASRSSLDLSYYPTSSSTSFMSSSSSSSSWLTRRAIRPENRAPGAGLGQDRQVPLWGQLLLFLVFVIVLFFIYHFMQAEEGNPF
Protocol: as §1, §2

RPS13 = RPS13 (UniProt P62277 2-151); test: as above
Protocol: as §1, §2

CFL1 = target: T7, CFL1 (UniProt P23528 2-166); test: as above
T7 construct: also called NP_005498.1
T7 sequence (P23528 2-166 limits assumed): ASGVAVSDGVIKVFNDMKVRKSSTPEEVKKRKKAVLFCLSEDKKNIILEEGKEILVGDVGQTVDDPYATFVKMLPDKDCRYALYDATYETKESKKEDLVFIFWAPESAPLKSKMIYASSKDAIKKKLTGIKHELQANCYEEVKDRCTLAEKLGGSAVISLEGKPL
Protocol: as §1, §2

RPS11 = RPS11 (UniProt P62280 2-158); test: co-IP with anti-FLAG, mass spectrometry; C-FLAG B3GNT2
Protocol: as §1, §2

SPRR2E = target: T8, SPRR2E (UniProt P22531 1-72); test: as above
T8 construct: Protein found in the co-IP by mass spectrometry; also called NP_001019380.2
T8 sequence (looked up): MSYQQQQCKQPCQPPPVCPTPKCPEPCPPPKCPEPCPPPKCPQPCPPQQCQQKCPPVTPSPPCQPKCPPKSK
Protocol: as §1, §2

S100A9 = target: T9, S100A9 (UniProt P06702 1-114); test: as above
T9 construct: Protein found in the co-IP by mass spectrometry; also called NP_002956.1
T9 sequence (looked up): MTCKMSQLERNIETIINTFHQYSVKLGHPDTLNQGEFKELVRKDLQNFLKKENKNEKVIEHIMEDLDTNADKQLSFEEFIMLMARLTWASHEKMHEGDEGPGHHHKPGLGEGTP
Protocol: as §1, §2

ENO1 = target: T10, ENO1 (UniProt P06733 2-434); test: as above
T10 construct: Endogenous protein found in the co-IP by mass spectrometry; also called NP_001419.1
T10 sequence (P06733 2-434 limits assumed): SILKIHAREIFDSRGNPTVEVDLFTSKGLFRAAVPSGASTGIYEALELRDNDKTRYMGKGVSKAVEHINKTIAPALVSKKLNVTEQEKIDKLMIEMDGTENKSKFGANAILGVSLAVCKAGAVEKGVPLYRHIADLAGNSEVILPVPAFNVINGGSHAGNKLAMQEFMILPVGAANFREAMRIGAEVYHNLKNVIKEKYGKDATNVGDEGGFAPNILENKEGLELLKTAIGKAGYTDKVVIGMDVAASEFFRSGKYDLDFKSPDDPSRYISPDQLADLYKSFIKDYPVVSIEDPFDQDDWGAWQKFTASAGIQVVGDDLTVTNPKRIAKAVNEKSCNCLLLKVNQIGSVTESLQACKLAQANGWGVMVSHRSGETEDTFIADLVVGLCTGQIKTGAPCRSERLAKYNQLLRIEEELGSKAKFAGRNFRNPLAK
Protocol: as §1, §2

S100A8 = target: T11, S100A8 (UniProt P05109 1-93); test: as above
T11 construct: Protein found in the co-IP by mass spectrometry; also called NP_002955.2
T11 sequence (looked up): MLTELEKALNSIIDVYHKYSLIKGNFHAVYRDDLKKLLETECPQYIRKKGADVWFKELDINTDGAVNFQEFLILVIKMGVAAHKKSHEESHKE
Protocol: as §1, §2

RPS17 = RPS17 (UniProt P08708 2-135); test: as above
Protocol: as §1, §2

PPIA = target: T12, PPIA (UniProt P62937 2-165); test: as above
T12 construct: Endogenous protein found in the co-IP by mass spectrometry; also called NP_066953.1
T12 sequence (P62937 2-165 limits assumed): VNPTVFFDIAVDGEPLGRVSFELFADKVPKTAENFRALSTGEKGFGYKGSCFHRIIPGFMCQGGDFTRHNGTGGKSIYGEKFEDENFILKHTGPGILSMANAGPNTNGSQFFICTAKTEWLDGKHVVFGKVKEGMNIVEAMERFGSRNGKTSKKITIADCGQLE
Protocol: as §1, §2

TRIM21 = target: T13, TRIM21 (UniProt P19474 1-475); test: as above
T13 construct: Endogenous protein found in the co-IP by mass spectrometry; also called NP_003132.2
T13 sequence (P19474 whole entry): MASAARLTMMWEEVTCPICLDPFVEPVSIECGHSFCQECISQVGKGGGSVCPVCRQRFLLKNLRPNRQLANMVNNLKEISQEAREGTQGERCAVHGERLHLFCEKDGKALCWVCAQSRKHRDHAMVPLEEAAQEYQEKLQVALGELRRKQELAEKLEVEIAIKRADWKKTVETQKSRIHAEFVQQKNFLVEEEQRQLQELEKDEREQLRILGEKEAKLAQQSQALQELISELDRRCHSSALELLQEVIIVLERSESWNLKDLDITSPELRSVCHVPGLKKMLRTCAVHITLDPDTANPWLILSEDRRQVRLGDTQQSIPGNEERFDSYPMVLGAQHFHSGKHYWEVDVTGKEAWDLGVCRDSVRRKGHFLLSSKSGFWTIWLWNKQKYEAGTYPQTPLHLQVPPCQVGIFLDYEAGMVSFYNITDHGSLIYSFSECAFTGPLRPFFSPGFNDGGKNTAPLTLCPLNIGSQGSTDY
Protocol: as §1, §2

AHNAK = target: T14, AHNAK (UniProt Q09666 1-5890); test: as above
T14 construct: Endogenous protein found in the co-IP by mass spectrometry; also called NP_001611.1
Protocol: as §1, §2

Binder	co-IP mass spectrometry count (ARG1)	co-IP mass spectrometry count (TMEM59)	co-IP mass spectrometry count (RPS2)	co-IP mass spectrometry count (DEFA3)	co-IP mass spectrometry count (POF1B)	co-IP mass spectrometry count (RPS23)	co-IP mass spectrometry count (CDSN)	co-IP mass spectrometry count (RPS18)	co-IP mass spectrometry count (EMD)	co-IP mass spectrometry count (RPS13)	co-IP mass spectrometry count (CFL1)	co-IP mass spectrometry count (RPS11)	co-IP mass spectrometry count (SPRR2E)	co-IP mass spectrometry count (S100A9)	co-IP mass spectrometry count (ENO1)	co-IP mass spectrometry count (S100A8)	co-IP mass spectrometry count (RPS17)	co-IP mass spectrometry count (PPIA)	co-IP mass spectrometry count (TRIM21)	co-IP mass spectrometry count (AHNAK)
B1	6	0	24	8	0	16	0	18	2	4	6									
B2												18	0	9	4	3	10	0	0	2
